Source: article PMC8609353

How the values were obtained:
[1] = molecular target: N1 NA head domain from A/Michigan/45/2015 (H1N1), obtained from N1-MPP by thrombin cleavage (influenza A virus A/Michigan/45/2015 (H1N1)); test: crystal structure; N1 head after thrombin removal of the MPP domain; sitting drop, 0.2 M calcium acetate, 20% PEG 3350, 20°C; 2.90 Å
[2] = molecular target: N1-MPP: recombinant N1 neuraminidase head domain of A/Michigan/45/2015 (H1N1) fused to the measles virus phosphoprotein tetramerization domain (measles virus | influenza A virus A/Michigan/45/2015 (H1N1)); test: cross-linking
[3] = molecular target: N1-SPP: recombinant N1 neuraminidase head domain of A/Michigan/45/2015 (H1N1) fused to the Sendai virus phosphoprotein tetramerization domain (Sendai virus | influenza A virus A/Michigan/45/2015 (H1N1)); test: cross-linking
[4] = molecular target: N1-VASP: recombinant N1 neuraminidase head domain of A/Michigan/45/2015 (H1N1) fused to the vasodilator-stimulated phosphoprotein tetramerization domain (human | influenza A virus A/Michigan/45/2015 (H1N1)); test: cross-linking

N1 NA head domain from A/Michigan/45/2015 (H1N1), obtained from N1-MPP by thrombin cleavage (domain or fragment)
stoichiometry N [1]: 4

N1-MPP: recombinant N1 neuraminidase head domain of A/Michigan/45/2015 (H1N1) fused to the measles virus phosphoprotein tetramerization domain
stoichiometry N [2]: 4

N1-SPP: recombinant N1 neuraminidase head domain of A/Michigan/45/2015 (H1N1) fused to the Sendai virus phosphoprotein tetramerization domain
stoichiometry N [3]: 4

N1-VASP: recombinant N1 neuraminidase head domain of A/Michigan/45/2015 (H1N1) fused to the vasodilator-stimulated phosphoprotein tetramerization domain
stoichiometry N [4]: 4
